Measured values as given in publication PMC3316577.

How the values were obtained:
[1] = molecular target: CBFβ140-His (residues 1-140 of CBFβ with six histidine residues at the N-terminus) (human) (UniProt Q13951); experiment: SEC; Vif-CBFβ complexes co-expressed and purified by nickel affinity, Superdex 200 10/300 GL, 20 mM Tris-HCl pH 8.0, 150 mM NaCl, 10% glycerol; peak fractions by SDS-PAGE and Coomassie staining
[2] = molecular target: His-tagged CBFβ187 (mouse CBFβ, residues 1-187) (mouse) (UniProt Q08024); experiment: SEC
[3] = molecular target: CBFβ140-His (residues 1-140 of CBFβ with six histidine residues at the N-terminus) (human) (UniProt Q13951); experiment: SEC

UniProt Q13951, sequence (Q13951 1-140): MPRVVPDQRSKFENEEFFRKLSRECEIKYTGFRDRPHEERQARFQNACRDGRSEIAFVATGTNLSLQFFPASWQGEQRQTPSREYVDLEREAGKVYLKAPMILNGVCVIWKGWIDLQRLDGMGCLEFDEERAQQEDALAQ
UniProt Q08024, sequence (Q08024 whole entry, the tested form may be a part): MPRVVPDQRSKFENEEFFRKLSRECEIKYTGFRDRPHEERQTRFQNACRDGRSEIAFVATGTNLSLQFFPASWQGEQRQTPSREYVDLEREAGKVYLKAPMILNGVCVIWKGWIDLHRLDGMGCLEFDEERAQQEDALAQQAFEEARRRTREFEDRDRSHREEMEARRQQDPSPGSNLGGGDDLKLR

| Substance | stoichiometry N [1] | stoichiometry N [2] | stoichiometry N [3] |
| --- | --- | --- | --- |
| truncated HIV-1 Vif176 (residues 1-176) (from UniProt P12504 1-176) (domain or fragment) | 1 | – | – |
| full-length HIV-1 Vif (residues 1-192) (from UniProt P12504) (natural protein) | 1 | 1 | 1 |
| Elongin B / Elongin C (residues 17 to 112) (from UniProt Q15370 1-118; Q15369 17-112) (complex) | – | 1 | 1 |
| truncated HIV-1 Vif140 (residues 1-140) (from UniProt P12504 1-140) (domain or fragment) | 1 | – | – |
